Laboratory results from the supplement of paper PMC9112550, “Optimization of the antimicrobial peptide Bac7 by deep mutational scanning” (BMC Biology, 2022).

system: Escherichia coli TOP10; experiment: shrunken log2 fold change of peptide-encoding DNA abundance (4.5 h post-induction vs induction); higher = less antimicrobial activity (less host growth inhibition); conditions: time post-induction: 4.5 h; library: site-saturation at positions 5, 18, 19, 20
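Note: peptides expressed intracellularly from a pBAD plasmid library in pooled LB shake-flask culture, induced with 0.3% L-arabinose, DNA abundance read by NGS, three biological replicates, DESeq2 with apeglm shrinkage.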

RRIRQRPPRLPRPRPRPNIPPRP and RRIRRRPPRLPRPRPRPGIDPRP are within 0.2 log units of each other in “shrunken log2 fold change” value: -0.262 for the first, -0.0704 for the second.

First: RRIRARPPRLPRPRPRPHSRPRP
Second: RRIRARPPRLPRPRPRPFNCPRP
The “shrunken log2 fold change” value of the first is higher: -0.0946 for the first, -0.357 for the second.

Compared with RRIRDRPPRLPRPRPRPICPPRP, RRIRVRPPRLPRPRPRPKVWPRP is higher in “shrunken log2 fold change” value: 0.106 for the first, 0.409 for the second.

Going from RRIRYRPPRLPRPRPRPRGRPRP to RRIRIRPPRLPRPRPRPPRRPRP, the “shrunken log2 fold change” value rises from 0.142 to 0.396.

RRIRERPPRLPRPRPRPKCSPRP and RRIRHRPPRLPRPRPRPHSWPRP are within 0.2 log units of each other in “shrunken log2 fold change” value: -0.0163 for the first, -0.0723 for the second.

First: RRIRNRPPRLPRPRPRPGGFPRP
Second: RRIRHRPPRLPRPRPRPPWVPRP
The “shrunken log2 fold change” value of the first is higher: 0.144 for the first, -0.101 for the second.

Going from RRIRMRPPRLPRPRPRPQYRPRP to RRIRPRPPRLPRPRPRPRLKPRP, the “shrunken log2 fold change” value rises from -0.0939 to 0.344.

RRIRARPPRLPRPRPRPHYAPRP and RRIRNRPPRLPRPRPRPWKRPRP are within 0.2 log units of each other in “shrunken log2 fold change” value: -0.0521 for the first, -0.0326 for the second.

Compared with RRIRRRPPRLPRPRPRPWKYPRP, RRIRSRPPRLPRPRPRPAHEPRP is higher in “shrunken log2 fold change” value: -0.478 for the first, -0.074 for the second.

Compared with RRIRIRPPRLPRPRPRPSTCPRP, RRIRLRPPRLPRPRPRPLTWPRP is higher in “shrunken log2 fold change” value: -0.548 for the first, 0.0168 for the second.

First: RRIRCRPPRLPRPRPRPYHTPRP
Second: RRIRARPPRLPRPRPRPRTAPRP
The “shrunken log2 fold change” value of the first is lower: -0.887 for the first, 0.844 for the second.

Going from RRIRARPPRLPRPRPRPADTPRP to RRIRNRPPRLPRPRPRPGSCPRP, the “shrunken log2 fold change” value falls from 0.0859 to -0.247.

RRIRLRPPRLPRPRPRPCFCPRP and RRIRERPPRLPRPRPRPVMTPRP are within 0.2 log units of each other in “shrunken log2 fold change” value: -0.279 for the first, -0.221 for the second.

Compared with RRIRWRPPRLPRPRPRPMQFPRP, RRIRCRPPRLPRPRPRPLIPPRP is lower in “shrunken log2 fold change” value: 0.104 for the first, -0.366 for the second.

RRIRERPPRLPRPRPRPNWCPRP and RRIRIRPPRLPRPRPRPMVSPRP are within 0.2 log units of each other in “shrunken log2 fold change” value: -0.0117 for the first, -0.044 for the second.

RRIRSRPPRLPRPRPRPSYDPRP and RRIRVRPPRLPRPRPRPINMPRP are within 0.2 log units of each other in “shrunken log2 fold change” value: -0.609 for the first, -0.602 for the second.

Going from RRIRWRPPRLPRPRPRPDTCPRP to RRIRHRPPRLPRPRPRPQNYPRP, the “shrunken log2 fold change” value falls from -0.0059 to -1.11.

First: RRIRERPPRLPRPRPRPQMEPRP
Second: RRIRGRPPRLPRPRPRPREQPRP
The “shrunken log2 fold change” value of the first is lower: 0.00522 for the first, 0.857 for the second.

First: RRIRDRPPRLPRPRPRPPYWPRP
Second: RRIRVRPPRLPRPRPRPINCPRP
The “shrunken log2 fold change” value of the first is higher: 0.246 for the first, -0.12 for the second.

Compared with RRIRWRPPRLPRPRPRPGCHPRP, RRIRARPPRLPRPRPRPRRDPRP is higher in “shrunken log2 fold change” value: 0.253 for the first, 0.656 for the second.

RRIRVRPPRLPRPRPRPWCMPRP and RRIRMRPPRLPRPRPRPNNMPRP are within 0.2 log units of each other in “shrunken log2 fold change” value: -0.468 for the first, -0.309 for the second.

RRIRNRPPRLPRPRPRPMTDPRP and RRIRWRPPRLPRPRPRPNDFPRP are within 0.2 log units of each other in “shrunken log2 fold change” value: -0.088 for the first, -0.0161 for the second.

Compared with RRIRYRPPRLPRPRPRPSIDPRP, RRIRVRPPRLPRPRPRPLQFPRP is higher in “shrunken log2 fold change” value: -0.519 for the first, -0.149 for the second.

First: RRIRTRPPRLPRPRPRPEWNPRP
Second: RRIRIRPPRLPRPRPRPSRQPRP
The “shrunken log2 fold change” value of the first is higher: -0.05 for the first, -0.747 for the second.

RRIRERPPRLPRPRPRPISNPRP and RRIRLRPPRLPRPRPRPWRQPRP are within 0.2 log units of each other in “shrunken log2 fold change” value: -0.25 for the first, -0.121 for the second.

Going from RRIRSRPPRLPRPRPRPGATPRP to RRIRQRPPRLPRPRPRPRHSPRP, the “shrunken log2 fold change” value falls from 0.584 to -0.185.

RRIRARPPRLPRPRPRPFTPPRP and RRIRNRPPRLPRPRPRPHKGPRP are within 0.2 log units of each other in “shrunken log2 fold change” value: -0.0978 for the first, -0.014 for the second.

RRIRNRPPRLPRPRPRPRMWPRP and RRIRARPPRLPRPRPRPFVNPRP are within 0.2 log units of each other in “shrunken log2 fold change” value: 0.28 for the first, 0.164 for the second.

Going from RRIRGRPPRLPRPRPRPHLEPRP to RRIRARPPRLPRPRPRPFMAPRP, the “shrunken log2 fold change” value falls from 0.381 to -0.163.

Going from RRIRMRPPRLPRPRPRPFIVPRP to RRIRGRPPRLPRPRPRPMPSPRP, the “shrunken log2 fold change” value rises from -0.414 to 0.431.

Going from RRIRWRPPRLPRPRPRPDWYPRP to RRIRFRPPRLPRPRPRPISEPRP, the “shrunken log2 fold change” value rises from -0.268 to -0.0674.

Going from RRIRKRPPRLPRPRPRPQSDPRP to RRIRHRPPRLPRPRPRPQQAPRP, the “shrunken log2 fold change” value falls from 0.247 to -0.00588.

Compared with RRIRYRPPRLPRPRPRPQAQPRP, RRIRGRPPRLPRPRPRPMFRPRP is higher in “shrunken log2 fold change” value: 0.0442 for the first, 0.303 for the second.

Compared with RRIRDRPPRLPRPRPRPPHPPRP, RRIRCRPPRLPRPRPRPFTQPRP is lower in “shrunken log2 fold change” value: 0.235 for the first, -0.559 for the second.

Going from RRIRPRPPRLPRPRPRPTMMPRP to RRIRRRPPRLPRPRPRPNAPPRP, the “shrunken log2 fold change” value rises from -0.216 to 0.675.

Going from RRIRDRPPRLPRPRPRPRHAPRP to RRIRARPPRLPRPRPRPGVGPRP, the “shrunken log2 fold change” value rises from 0.324 to 0.805.

Compared with RRIRRRPPRLPRPRPRPMYFPRP, RRIRRRPPRLPRPRPRPLSKPRP is higher in “shrunken log2 fold change” value: -0.21 for the first, 1.95 for the second.

RRIRHRPPRLPRPRPRPFTKPRP and RRIRTRPPRLPRPRPRPRQFPRP are within 0.2 log units of each other in “shrunken log2 fold change” value: 0.009 for the first, -0.0836 for the second.

First: RRIRHRPPRLPRPRPRPLSLPRP
Second: RRIRDRPPRLPRPRPRPSLTPRP
The “shrunken log2 fold change” value of the first is lower: -0.492 for the first, 0.154 for the second.

Going from RRIRIRPPRLPRPRPRPQSIPRP to RRIRCRPPRLPRPRPRPVTIPRP, the “shrunken log2 fold change” value falls from -0.0763 to -0.461.

Going from RRIRPRPPRLPRPRPRPNKSPRP to RRIRVRPPRLPRPRPRPTEDPRP, the “shrunken log2 fold change” value falls from 0.408 to -0.113.

RRIRQRPPRLPRPRPRPWWRPRP and RRIRCRPPRLPRPRPRPVQKPRP are within 0.2 log units of each other in “shrunken log2 fold change” value: 0.0847 for the first, -0.0201 for the second.

Going from RRIRVRPPRLPRPRPRPFNSPRP to RRIRNRPPRLPRPRPRPTIFPRP, the “shrunken log2 fold change” value falls from -0.00973 to -0.248.

Compared with RRIRFRPPRLPRPRPRPKSSPRP, RRIRWRPPRLPRPRPRPGGEPRP is higher in “shrunken log2 fold change” value: -0.103 for the first, 0.107 for the second.

RRIRDRPPRLPRPRPRPRNFPRP and RRIRPRPPRLPRPRPRPWFWPRP are within 0.2 log units of each other in “shrunken log2 fold change” value: 0.0881 for the first, 0.281 for the second.

RRIRERPPRLPRPRPRPTGGPRP and RRIRMRPPRLPRPRPRPAPLPRP are within 0.2 log units of each other in “shrunken log2 fold change” value: 0.342 for the first, 0.541 for the second.

RRIRQRPPRLPRPRPRPYNLPRP and RRIRLRPPRLPRPRPRPSWIPRP are within 0.2 log units of each other in “shrunken log2 fold change” value: -0.00751 for the first, -0.131 for the second.

RRIRYRPPRLPRPRPRPQRGPRP and RRIRQRPPRLPRPRPRPHYAPRP are within 0.2 log units of each other in “shrunken log2 fold change” value: -0.123 for the first, -0.0213 for the second.

First: RRIRERPPRLPRPRPRPVGLPRP
Second: RRIRVRPPRLPRPRPRPERHPRP
The “shrunken log2 fold change” value of the first is higher: 0.147 for the first, -0.0734 for the second.

Going from RRIRCRPPRLPRPRPRPVPKPRP to RRIRRRPPRLPRPRPRPWKVPRP, the “shrunken log2 fold change” value falls from 0.339 to 0.00548.

Going from RRIRPRPPRLPRPRPRPHDGPRP to RRIRARPPRLPRPRPRPENKPRP, the “shrunken log2 fold change” value rises from -0.0292 to 0.31.

Going from RRIRRRPPRLPRPRPRPVVRPRP to RRIRCRPPRLPRPRPRPISKPRP, the “shrunken log2 fold change” value falls from 0.274 to -0.37.

Going from RRIRDRPPRLPRPRPRPKESPRP to RRIRWRPPRLPRPRPRPTNHPRP, the “shrunken log2 fold change” value falls from 0.277 to -0.245.

RRIRHRPPRLPRPRPRPSIAPRP and RRIRTRPPRLPRPRPRPHPKPRP are within 0.2 log units of each other in “shrunken log2 fold change” value: -0.0614 for the first, -0.0492 for the second.

For RRIRCRPPRLPRPRPRPMQEPRP, the “shrunken log2 fold change” value was -0.0194.
